Assays:
[1] = system: murine myotubes; test: Murine myotubes subjected to high glucose: protein degradation, protein synthesis, ROS, pPKR; type: cell-based, mouse
Protocol: This utilizes murine myotubes subjected to high concentrations of glucose (10 or 25 mM). […] However the SR compound (i.e., SR59230A) can also act as a β-agonist, which it seemed to do in these experiments.
It has been shown that formation of reactive oxygen species (ROS) is important in protein degradation induced by high glucose load. […] High glucose also induces activation (phosphorylation) of PKR (FIG. 22A) and the subsequent phosphorylation of eIF2α (FIG. 22B) as is seen in skeletal muscle of ob/ob mice, which was also attenuated by ZAG.

[2] = system: ob/ob mice; test: ob/ob mice treated with ZAG i.v. with or without propanolol; type: in vivo, mouse; conditions: ZAG alone
Protocol: Animals. […] Male mice (about 20 weeks of age) were grouped into three per cage and kept in an air conditioned room at 22±2° C., with ad libitum feeding of a rat and mouse breeding diet (Special Diet Services, Witham, UK) and tap water. Mice were administered ZAG (50 μg, i.v. in 100 μl PBS) or PBS daily with or without propanolol (40 mgkg^−1, po, daily) and body weight and food and water intake were determined, as well as urinary glucose excretion and body temperature, determined by the use of a rectal thermometer (RS Components, Northants, UK). A glucose tolerance test was performed on day 3. […] Blood samples were removed from the tail vein at 15, 30, 60 and 120 min after glucose administration and used for the measurements of glucose and insulin. At the end of the experiment the animals were terminated by cervical dislocation, tissues removed and rapidly frozen in liquid nitrogen, and maintained at −80° C.
To determine whether ZAG can increase insulin signalling the effect on Glut4 expression was determined.

[3] = system: adipocytes, BAT; test: Expression of ZAG, HSL, UCP in adipose tissue/adipocytes of mice (5 day ZAG study); type: in vivo, mouse
Protocol: (§1) Western Blot Analysis. Freshly excised gastrocnemius muscles were washed in PBS and lysed in PHOSPHOSAFE™ Extraction Reagent for 5 min at room temperature followed by sonication at 4° C. The lysate was cleared by centrifugation at 18,000 g for 5 min at 4° C. and samples of cytosolic protein (5 μg) were resolved on 12% sodium dodecyl sulfate-polyacrylamide gel electrophoresis at 180V for approximately 1 h. This was followed by transference to 0.45 μm nitrocellulose membranes, which were then blocked with 5% Marvel in Tris-buffered saline, pH 7.5, at 4° C. overnight. Both primary and secondary antibodies were used at a dilution of 1:1000 except anti-myosin (1:250). Incubation was for 1 h at room temperature, and development was by ECL. Blots were scanned by a densitometer to quantify differences.
A 5 day study was performed where ZAG was administered at 35 μg per day i.v. on a daily basis for 5 days. At the end of the experiment tissues were removed and blotted, or functional assays were carried out with isolated adipocytes. […] When ep adipocytes were prepared and maintained in tissue culture (RPMI 1640+10% FCS) ZAG expression was maintained for a further 3 days, even though no ZAG was added to the culture medium (FIG. 6B). […] In fact, as discussed above, too much ZAG is more likely to lead to resistance rather than an increased response.

[4] = system: gastrocnemius muscle of ob/ob mice; test: Proteasome activity and Western blots in gastrocnemius muscle of ZAG-treated ob/ob mice; type: in vivo, mouse
Protocol: Measurement of Proteasome and Caspase Activity. […] Gastrocnemius muscle was homogenised in 20 mM Tris, pH7.5, 2 mM ATP, 5 mM MgCl2 and 50 mM DTT at 4° C., sonicated and centrifuged at 18,000 g for 10 min at 4° C. to pellet insoluble material, and the resulting supernatant was used to measure ‘chymotrypsin-like’ enzyme activity in the presence or absence of the proteasome inhibitor lactacystin (10 μM). Only lactacystin suppressible activity was considered as true proteasome activity. The activity of caspase-3 was determined by the release of AMC from AcAsp.Gly.Val.Asp.AMC (SEQ ID NO: 3), and the activity of caspase-8 was determined by the release of 7-amino-4-trifluromethylcoumarin (AFC) from the specific substrate Z-Ile Glu Phe Thr Asp-AFC (SEQ ID NO: 4), using the supernatant from above (50 μg protein), and either the caspase-3 or -8 substrate (10 μM) for 1 h at 37° C., in the presence or absence of the caspase-3 (AcAspGluValAsp-CHO) (SEQ ID NO: 5) or caspase-8 (Ile Glu Phe Thr Asp-CHO) (SEQ ID NO: 6) inhibitors (100 μM). The increase in fluorescence due to […] was determined as above, while the increase in fluorescence due to AFC was measured with an excitation wavelength of 400 nm and an emission wavelength of 505 nm. The difference in values in the absence and presence of the caspase inhibitors was a measure of activity.
as §1

[5] = system: WAT, BAT and gastrocnemius muscle of male Wistar rats; test: Western blots of tissues from rats treated with ZAG; type: in vivo, rat
Protocol: Samples of epididymal WAT, BAT and gastrocnemius muscle excised from rats treated with ZAG or PBS for 5 days were homogenized in 0.25M sucrose, 1 mM HEPES, pH 7.0 and […], and then centrifuged for 10 min at 4,500 rpm. Samples of cytosolic protein (10 μg) were resolved on 12% sodium dodecylsulphate polyacrylamide gel electrophoresis and the proteins were then transferred onto 0.45 μm nitrocellulose membranes, which had been blocked with 5% Marvel in Tris-buffered saline, pH 7.5, at 4° C. overnight, and following four 15 min washes with 0.1% Tween in PBS, incubation with the secondary antibody was performed for 1 h at room temperature. Development was by ECL.

[6] = 10 or 25 mM glucose, ZAG 25 μg/ml

B1: ZAG: recombinant full length human zinc-α2-glycoprotein (SEQ ID NO: 1) secreted by transfected HEK293F cells; lipid mobilizing factor (protein, listed as Homo sapiens)
chain: QENQDGRYSLTYIYTGLSKHVEDVPAFQALGSLNDLQFFRYNSKDRKSQPMGLWRQVEGMEDWKEDSQLQKAREDMETLKDIVEYYNDSNGSHVLQGRFGCEIENNRSSGAFWKYYYDGKDYIEFNKEIPAWVPFDPAAQITKQKWEAEPVYVQRAKAYLEEECPATLRKYLKYSKNILDRQDPPSVVVTSHQAPGEKKKLKCLAYDFYPGKIDVHWTRAGQVQEPELRGDVLHNGNGTYQSWVVVAVPPQDTAPYSCHVQHSSLAQPLVVPWEAS
[1]; [6]
  effect on depression of protein synthesis by high glucose: completely attenuated
  effect on protein degradation stimulated by high glucose: completely attenuated
[1]; myotubes
  effect on glucose-induced phosphorylation of PKR and eIF2α: attenuated
  effect on increase in ROS produced by glucose: completely attenuates
[2]
  effect on liver lipids: no effect on liver lipids
[3]; 35 μg per day i.v., 5 days
  ZAG expression in epididymal, subcutaneous and visceral fat: about two-fold
[3]; adipocytes from ZAG treated mice, isoprenaline 10 μM
  time increased response to isoprenaline was maintained in tissue culture without ZAG: 4 days
[3]; adipocytes of non-obese mice, 3 h
  expression of phospho HSL in adipocytes: increased expression of phospho HSL
[3]; ob/ob mice treated 5 days
  expression of UCP1 and UCP3 in BAT: increased the expression of UCP1
[4]; gastrocnemius muscle
  expression of 20S proteasome α-subunits and p42: decreased expression
  phosphorylated forms of PKR and eIF2α: reduction in the level of phosphorylated forms
  proteasome 'chymotrypsin-like' enzyme activity: decreased activity
[4]; skeletal muscle
  myosin levels: increased
[5]; rats
  expression of ATGL and HSL in epididymal adipose tissue: two-fold increase
  expression of UCP-1 and -3 in BAT and WAT: almost two-fold
  phosphorylated forms of PKR and eIF2 α-subunit in gastrocnemius muscle: significant reduction
[5]; rats treated for 10 days
  expression of ZAG in skeletal muscle, WAT and BAT: significantly increased

Source: patent US10077295B2, “Glycoproteins having lipid mobilizing properties and therapeutic uses thereof” (Aston University, priority 2010, dated 2018)
